From publication PMC9483108 come the findings set out here.

Like-named read-outs stand apart in the source and are kept apart here.

Series [1] concerns the target T1, RPL (Col-0)-His (Arabidopsis thaliana (Col-0), UniProt Q9LZM8 1-575).
T1 sequence: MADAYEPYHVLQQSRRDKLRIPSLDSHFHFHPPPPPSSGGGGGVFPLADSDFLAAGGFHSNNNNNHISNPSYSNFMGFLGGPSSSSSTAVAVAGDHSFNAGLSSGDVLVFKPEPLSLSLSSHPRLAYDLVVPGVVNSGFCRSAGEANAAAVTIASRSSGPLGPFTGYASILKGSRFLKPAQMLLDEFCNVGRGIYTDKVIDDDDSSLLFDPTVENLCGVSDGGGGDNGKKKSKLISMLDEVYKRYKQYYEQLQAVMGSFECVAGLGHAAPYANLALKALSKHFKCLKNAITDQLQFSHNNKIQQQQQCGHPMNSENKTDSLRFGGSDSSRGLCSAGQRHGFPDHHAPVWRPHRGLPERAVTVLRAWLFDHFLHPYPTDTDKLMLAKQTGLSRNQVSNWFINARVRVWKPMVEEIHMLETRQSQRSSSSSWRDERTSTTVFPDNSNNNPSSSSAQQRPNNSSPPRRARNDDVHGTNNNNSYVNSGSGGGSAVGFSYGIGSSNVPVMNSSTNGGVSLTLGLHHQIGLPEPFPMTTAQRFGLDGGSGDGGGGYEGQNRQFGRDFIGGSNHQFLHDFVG
The series is described as follows: EMSA. On the technique in general: In EMSA bound probe runs differently from free probe, usually more slowly.

Series [2] concerns the target T1, RPL (Col-0)-His. The series is described as follows: EMSA. This is another data set of the same source.

B1: CHI-m1-65bp (dsDNA)
DNA 1: CCATTTTTGTTTTTTGTTTTTTCAGTGACAAACTCACATGGATTTCATTTCAGATTCAGTTAGAT
DNA 2: ATCTAACTGAATCTGAAATGAAATCCATGTGAGTTTGTCACTGAAAAAACAAAAAACAAAAATGG
Consider B1, for which the binding result in series [1] is given as “binds”.

B2: GH3.3-m1-65bp (dsDNA)
DNA 1: CAAATTGAAAATGTCATTACCACTGATTAAAAAGGAATCAAAAGAAAAAAAGCTTTTAGTATTGA
DNA 2: TCAATACTAAAAGCTTTTTTTCTTTTGATTCCTTTTTAATCAGTGGTAATGACATTTTCAATTTG
Take B2: the binding result in series [2] was “binds”.

B3: CHI-m2-65bp (dsDNA)
DNA 1: GCTATTTTTTTTTTTTTTAATTTTATTGATCAATCAACTGAATACTGAATACAAAAGAAAACCTG
DNA 2: CAGGTTTTCTTTTGTATTCAGTATTCAGTTGATTGATCAATAAAATTAAAAAAAAAAAAAATAGC
For B3, the binding result in series [1] is listed as “binds”.

B4: GH3.3-m2-65bp (dsDNA)
DNA 1: AATCAAAAGAAAAAAAGCTTTTAGTATTGAGTATTGACCGTCGCTATCGGTGACAGGCAGAGTCA
DNA 2: TGACTCTGCCTGTCACCGATAGCGACGGTCAATACTCAATACTAAAAGCTTTTTTTCTTTTGATT
For B4, the binding result in series [2] is on record as “binds”.
